Results on one molecule are retold here after article PMC2570489, “The Co-Operonic PE25/PPE41 Protein Complex of Mycobacterium tuberculosis Elicits Increased Humoral and Cell Mediated Immune Response” (PLoS ONE, 2008).

For this assay, the target named is T1, PPE41 protein of Mycobacterium tuberculosis (Mycobacterium tuberculosis, UniProt Q79FE1 1-194).
T1 construct: also called Rv2430c; rRv2431c (as printed in the methods)
T1 sequence: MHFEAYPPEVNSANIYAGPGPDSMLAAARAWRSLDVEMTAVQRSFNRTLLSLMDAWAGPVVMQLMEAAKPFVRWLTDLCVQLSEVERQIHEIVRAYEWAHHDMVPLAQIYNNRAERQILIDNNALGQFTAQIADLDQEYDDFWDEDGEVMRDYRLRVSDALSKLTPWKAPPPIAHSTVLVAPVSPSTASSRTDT
Kind of assay: co-purification by Cobalt affinity chromatography. The following applies: partners not purified.

B1: PE25 protein of Mycobacterium tuberculosis (natural protein)
chain: MSFVITNPEALTVAATEVRRIRDRAIQSDAQVAPMTTAVRPPAADLVSEKAATFLVEYARKYRQTIAAAAVVLEEFAHALTTGADKYATAEADNIKTFS
notes: also called Rv2431c; rRv2430c (as printed in the methods)
For the molecule B1, the binding result is listed as “binds”.
